According to article PMC7618050, “Structure of the Bacteriophage PhiKZ non-virion RNA Polymerase transcribing from its promoter p119L”:

Target: PhiKZ nvRNAP GP55 (beta'-like);PhiKZ nvRNAP GP74 (beta'-like);PhiKZ nvRNAP GP71-73 (beta-like);PhiKZ nvRNAP … (Pseudomonas phage phiKZ;Pseudomonas …, UniProt Q8SDA7;Q8SD88;PDB:8QUE_2;Q8SD39;Q8SD94 1-420;1-677;1-700;1-543;1-521, ||||)
Experiment: cryo-EM structure (3.3 A); 10 mM MgCl2; 1 mM ATP, CTP, GTP, no UTP; Zn2+ in GP55; 40 mM Tris-Cl pH 8.0, 10 mM MgCl2, 5 mM DTT, 1 mM ATP/CTP/GTP, 30 min at 37 C, nvRNAP 0.1 mg/mL with scaffold 1:1; native PAGE 4-20% TGX at 4 C
Details: protein: recombinant;recombinant;recombinant;recombinant;recombinant; tags: ;;;;; copies: 1;1;1;1;1; label: Cy5 at 5' end of RNA (printed Cy5-GUAGA); non-template/template DNA with mismatched bubble; RNA hybrid with template (6 bp resolved)

B1: p119L RNA/DNA template with RNA extended by 3 nt (mixed)
DNA 1: AGTAATTTTAGTGAATGTATTTGCTATATTGCTATCCTAACAGTTCCCAAAAGCCTAAAGTTACAATATAGGTAC
DNA 2: GTACCTATATTGTAACTTTAGGCTTTTGGGAACTGTCTACATAGCAATATAGCAAATACATTCACTAAAATTACT
RNA: GUAGACAG
B1: binds.
